Fold WT data for ten substances are collected here from patent WO2005092925A2.

Among the targets are human FcRn (human) (UniProt P55899); human FcγRI (human) (UniProt P12314); human FcγRIIb (human) (UniProt P31994); human FcγRIIc (human) (UniProt P31995).
Holding throughout (experiment): AlphaScreen
A general note: Bead proximity is the source of the signal in Alpha formats.

Assay [1] deals with human FcγRIIa H131 (human) (UniProt P12318).
The target in assay [2] is human V158 FcγRIIIa, extracellular region fused with GST (human) (UniProt P08637).
Sequence of UniProt P08637 (P08637 17-208 F176V): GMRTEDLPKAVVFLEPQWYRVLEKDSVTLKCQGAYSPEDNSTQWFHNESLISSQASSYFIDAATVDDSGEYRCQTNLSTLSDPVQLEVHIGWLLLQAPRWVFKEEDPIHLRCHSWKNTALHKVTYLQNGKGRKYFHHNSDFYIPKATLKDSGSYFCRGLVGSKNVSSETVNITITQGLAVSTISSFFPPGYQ

Sequence of UniProt P12314 (P12314 16-288 limits assumed): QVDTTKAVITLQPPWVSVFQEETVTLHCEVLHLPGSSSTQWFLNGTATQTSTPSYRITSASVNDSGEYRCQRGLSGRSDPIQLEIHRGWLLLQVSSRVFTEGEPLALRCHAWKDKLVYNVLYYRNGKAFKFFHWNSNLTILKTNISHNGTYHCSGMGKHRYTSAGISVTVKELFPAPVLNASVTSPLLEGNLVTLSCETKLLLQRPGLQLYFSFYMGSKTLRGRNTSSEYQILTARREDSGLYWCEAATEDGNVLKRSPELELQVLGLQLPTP
Sequence of UniProt P31995 (P31995 43-217 limits assumed): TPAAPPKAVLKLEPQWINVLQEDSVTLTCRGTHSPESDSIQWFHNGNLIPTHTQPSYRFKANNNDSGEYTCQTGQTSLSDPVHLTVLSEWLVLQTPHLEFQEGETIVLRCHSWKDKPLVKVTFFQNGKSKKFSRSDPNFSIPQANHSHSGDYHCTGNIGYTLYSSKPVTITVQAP
Sequence of UniProt P31994 (P31994 43-217 limits assumed): as the sequence (P31995 43-217 limits assumed) above
Sequence of UniProt P55899 (P55899 24-297 limits assumed): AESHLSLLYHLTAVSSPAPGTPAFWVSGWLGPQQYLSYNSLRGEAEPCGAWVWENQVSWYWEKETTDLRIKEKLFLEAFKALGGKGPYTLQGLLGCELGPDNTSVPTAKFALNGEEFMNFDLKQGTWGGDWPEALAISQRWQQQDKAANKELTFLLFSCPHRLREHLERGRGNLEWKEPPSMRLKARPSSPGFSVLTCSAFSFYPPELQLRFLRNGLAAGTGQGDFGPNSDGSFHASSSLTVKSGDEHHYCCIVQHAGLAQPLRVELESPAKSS
Sequence of UniProt P12318 (P12318 36-218 limits assumed): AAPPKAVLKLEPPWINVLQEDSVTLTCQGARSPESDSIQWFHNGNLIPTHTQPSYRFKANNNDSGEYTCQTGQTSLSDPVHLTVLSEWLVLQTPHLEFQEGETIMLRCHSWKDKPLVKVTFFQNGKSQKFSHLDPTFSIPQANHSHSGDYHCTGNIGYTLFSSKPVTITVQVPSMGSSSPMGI

On to Campath L235R (antibody), for which the Fold WT in the assay with human FcRn (human) is 0.53 fold; with human FcγRI (human), 0.35 fold; in assay [1] it was 0.71 fold; with human FcγRIIb (human) it was 1.93 fold; with human FcγRIIc (human), 1.15 fold; in assay [2], 0.62 fold.
Regarding Campath P232Y (antibody), the Fold WT was 0.68 fold with human FcRn (human); 1.91 fold with human FcγRI (human); 1.51 fold in assay [1]; 1.49 fold with human FcγRIIb (human); 0.96 fold in the assay with human FcγRIIc (human); 0.99 fold in assay [2].
Take Campath G236A (antibody): the Fold WT was 1.75 fold in the assay with human FcRn (human); 0.48 fold in the assay with human FcγRI (human); 45 fold in assay [1]; 1.05 fold with human FcγRIIb (human); 1.45 fold in the assay with human FcγRIIc (human); 0.65 fold in assay [2].
Regarding Campath L234G (antibody), the Fold WT in the assay with human FcRn (human) came to 2.54 fold; with human FcγRI (human), 0.7 fold; in assay [1], 3.26 fold; with human FcγRIIb (human), 3.62 fold; with human FcγRIIc (human), 3.48 fold; in assay [2], 2.17 fold.
As for Campath G236S (antibody), the Fold WT with human FcRn (human) amounted to 1.77 fold; in the assay with human FcγRI (human), 0.55 fold; in assay [1], 22.7 fold; with human FcγRIIb (human) it was 2.77 fold; with human FcγRIIc (human), 3.68 fold; in assay [2] it was 5.77 fold.
For Campath L235M (antibody), the Fold WT with human FcRn (human) came to 0.69 fold; with human FcγRI (human), 0.38 fold; in assay [1] it was 0.79 fold; with human FcγRIIb (human), 0.89 fold; with human FcγRIIc (human), 0.64 fold; in assay [2] it was 0.46 fold.
As to Campath A231K (antibody), the Fold WT amounted to 0.52 fold with human FcRn (human); 0.5 fold in the assay with human FcγRI (human); 0.62 fold in assay [1]; 0.41 fold with human FcγRIIb (human); 0.58 fold in the assay with human FcγRIIc (human); 0.58 fold in assay [2].
As for Campath K222Y (antibody), the Fold WT was 0.66 fold with human FcRn (human); 0.77 fold with human FcγRI (human); 0.48 fold in assay [1]; 0.5 fold in the assay with human FcγRIIb (human); 0.34 fold with human FcγRIIc (human); 0.34 fold in assay [2].
On to Campath E233R (antibody), for which the Fold WT with human FcRn (human) was 1.05 fold; in the assay with human FcγRI (human), 0.14 fold; in assay [1], 0.75 fold; in the assay with human FcγRIIb (human), 0.36 fold; with human FcγRIIc (human), 0.6 fold; in assay [2], 0.35 fold.
In the case of Campath P232E (antibody), the Fold WT was 0.76 fold with human FcRn (human); 2.97 fold with human FcγRI (human); 0.8 fold in assay [1]; 1.59 fold with human FcγRIIb (human); 0.99 fold with human FcγRIIc (human); 1.51 fold in assay [2].
